The target of experiment [1] is T1, human FcRn (Biorbyt, cat. no. orb84388) (human, UniProt P55899 24-297; P61769 21-119, limits assumed).
T1 construct: Bought protein; Biotinylated in AlphaLISA and ELISA; also called biotinylated human FcRn
Nature of the experiment: ELISA titration of biotinylated human FcRn, pH 6.0. How it is done: (§1) ELISA KD analysis of FcRn binding Z variants: A selection of FcRn binders was subjected to an analysis of the response against a dilution series of biotinylated human FcRn using ELISA at both pH 6.0 and pH 7.4 as described above. […] As a background control, all Z variants were also assayed with no target protein added. […] Data were analyzed using GraphPad Prism 5 and non-linear regression and KD values (the half maximal effective concentration) were calculated.
(§2) Periplasm samples were incubated with a serial dilution of biotinylated human FcRn.

Experiment [2] has as its target T1, human FcRn (Biorbyt, cat. no. orb84388). Nature of the experiment: ELISA titration of biotinylated human FcRn, pH 7.4. How it is done:
as §1, §2

The values that follow come from US20160031967A1 (Affibody, published 2016).

Positions count from the first letter of the chain named.

T1 sequence (P55899 24-297 limits assumed, chain 1 of 2): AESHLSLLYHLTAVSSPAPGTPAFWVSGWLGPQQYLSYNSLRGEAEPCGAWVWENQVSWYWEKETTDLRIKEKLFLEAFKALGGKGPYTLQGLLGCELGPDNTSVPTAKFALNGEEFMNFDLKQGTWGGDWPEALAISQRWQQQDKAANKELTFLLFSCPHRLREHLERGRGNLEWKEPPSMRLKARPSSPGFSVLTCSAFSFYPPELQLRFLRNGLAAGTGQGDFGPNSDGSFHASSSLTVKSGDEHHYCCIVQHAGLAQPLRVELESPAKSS
T1 sequence (P61769 21-119 limits assumed, chain 2 of 2): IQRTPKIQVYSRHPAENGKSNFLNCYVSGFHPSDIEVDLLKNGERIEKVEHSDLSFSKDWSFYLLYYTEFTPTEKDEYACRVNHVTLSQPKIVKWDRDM

B1: Z13586-ABD fusion (designed binder)
chain: AQHDEALEVDAKYAKELKDAGHEIRWLPNLTFDQRVAFIHKLRDDPSQSSELLSEAKKLNDSQAPKVDYVLAEAKVLANRELDKYGVSDYYKNLINNAKTVEGVKALIDEILAALPYVPG
notes: domain: GA3; periplasmic Z-ABD fusion
Take B1: the values for the Kd in experiment [1] and in experiment [2] were 1.2 nM and 2.3 nM, respectively.

B2: Z13783-ABD fusion (designed binder)
chain: B1 chain with L17I, K18E, D19Q
notes: as for B1
Take B2: the values for the Kd in experiment [1] and in experiment [2] were 1.4 nM and 2.2 nM, respectively.
